Measurements taken from patent US11407825B2, “NaPi2b-targeted polymer antibody-drug conjugates and methods of use thereof” (Mersana Therapeutics, Inc., priority 2018, dated 2022).

Experiment: Phase 1b dose escalation study of XMT-1536: safety and tolerability (adverse events, DLT)
Format: in vivo, human
Excerpt: The study presented herein is an open label, multi-center Phase 1b study of XMT-1536 administered as an intravenous infusion once every three or four weeks. The dose escalation (DES) part of the study will establish the maximum tolerated dose (MTD) or recommended Phase 2 dose (RP2D) for XMT-1536 in patients with a number of tumor types likely to express NaPi2b, with a focus on patients with platinum-resistant ovarian cancer and non-squamous non-small cell lung cancer (NSCLC). […] The RP2D may differ from the MTD and may take into account tolerability, pharmacokinetic and pharmacodynamic measures, and efficacy of XMT-1536 based on RECIST 1.1. After the first cycle, patients may continue to receive XMT-1536 until disease progression provided the drug is well-tolerated and patients continue to derive clinical benefit in the opinion of the Investigator. The DES segment of the study utilized an accelerated titration design. The first 3-week cycle of treatment constitutes the dose limiting toxicity (DLT) evaluation period. For the first two dose levels, a minimum of 1 patient was treated at each dose level. If this patient experiences a treatment-emergent adverse event of Grade 2 or higher, 2 additional patients will be added at this dose level, and the study will subsequently follow a 3+3 design, as described below. […] Starting with Dose Level 3, the study will follow a standard 3+3 design, with 3 patients enrolled initially at each dose level. […] However, in the event of 1 DLT, 3 additional patients will be enrolled at the same dose level. Any dose level with 2 or more DLTs will be considered to exceed the MTD and subsequent patients will be enrolled at lower dose level(s). After the first cycle, patients may continue to receive XMT-1536 until disease progression if the drug is well-tolerated and patients continue to derive clinical benefit in the opinion of the Investigator.
After an August 2018 protocol amendment, each cycle will be 4-week (28 day) dose cycle. The first two, 4-week cycles of treatment (56 days) constitutes the dose limiting toxicity (DLT) evaluation period. Beginning with this amendment, up to 10 patients will be enrolled for evaluation at 20.0 mg/m^2 under the new 4-week cycle dose regimen. If that dose is cleared by the SRC, subsequent dose groups will follow a modified 3+3 design. Three patients will be enrolled initially and if toxicity issues arise, the SRC will review all pertinent data and may decide to add more patients to fully evaluate a dose in question and/or lower the dose. […] The observation period for DLTs is 56 days, between Day 1 through the end of Cycle 2 which includes the pre-dose assessments before receiving the Cycle 3 dose. A maximum of ten patients will be enrolled per dose level prior to the SRM. that will be conducted no later than 5 days after at least the sixth patient dosed in each level has completed Cycle 2, Day 28 evaluations. The data available for the patients dosed in all prior will be factored into the data review for each applicable dose escalation SRM. Any dose level with 2 or more DLTs occurring in 6 or fewer treated patients will be considered to exceed the MTD and subsequent patients will be enrolled at lower dose level(s). After the second cycle, patients may continue to receive XMT-1536 until disease progression if the drug is well-tolerated and patients continue to derive clinical benefit in the opinion of the Investigator. After completion of DES, the EXP segment of the study will be opened.
All adverse events will be graded according to the National Cancer Institute (NCI) Common Terminology Criteria version (CTCAE v4.03). The observation period for DLTs is 56 days, between Day 1 through end of Cycle 2 which includes the pre-dose assessments before receiving the Cycle 3 dose. […]

B1: XMT-1536: about 10-15 molecules of auristatin F-hydroxypropyl amide conjugated to a cysteine moiety of NaPi2b monoclonal antibody XMT-1535 via a PHF scaffold (conjugate, chains of the INN, looked up)
VH: QVQLVQSGAEVVKPGASVKMSCKASGYTFTGYNIHWVKQAPGQGLEWIGAIYPGNGDTSYKQKFRGRATLTADTSTSTVYMELSSLRSEDSAVYYCARGETARATFAYWGQGTLVTVSS
VL: DIQMTQSPSSLSASVGDRVTITCSASQDIGNFLNWYQQKPGKTVKVLIYYTSSLYSGVPSRFSGSGSGTDYTLTISSLQPEDFATYYCQQYSKLPLTFGQGTKLELK
modifications: auristatin F-hydroxypropyl amide via PHF scaffold
notes: about 10-15 molecules of auristatin F-hydroxypropyl amide conjugated to a cysteine moiety of NaPi2b monoclonal antibody XMT-1535 via a PHF scaffold
30 mg/m^2, 28-day cycle, as of August 2019
  number of DLT: One
30 mg/m^2, 28-day cycle, as of February 2019
  number of DLT: one
36 mg/m^2, 28-day cycle, as of August 2019
  number of DLT: one
40 mg/m^2, 21-day cycle, as of February 2019
  number of DLT: One
DL4 (20 mg/m^2)
  possible treatment related SAE: Grade 3 cardiac failure congestion
DL 4, 21-day cycle, as of February 2019
  SAE related to study drug: congestive heart failure
DL5 (30 mg/m^2)
  possible treatment related SAE: Grade 2 pyrexia
DL 5, 30 mg/m^2, 21-day cycle, as of February 2019
  SAE related to study drug: pyrexia
DL 5A
  ALT or bilirubin elevation: no elevation of ALT or bilirubin
  time for AST elevation to return to Grade 1: ≤ 13 days
  time for AST elevation to return to Grade 2: ≤ 7 days
DL 5A, alkaline phosphatase
  finding accompanying AST elevation: Grade 1 alkaline phosphatase elevation
DL 5A, cycle 1, day 8
  dose limiting toxicity: Grade 3 AST
DL6
  bilirubin elevation: no elevation of bilirubin
  time for ALT elevation to resolve to Grade 1: ≤ 8 days
  time for AST elevation to return to Grade 1: ≤ 21 days
DL6, ALT
  finding accompanying AST elevation: Grade 2 ALT elevation
DL6, alkaline phosphatase
  finding accompanying AST elevation: Grade 1 alkaline phosphatase elevation
DL6, cycle 1, day 8
  dose limiting toxicity: Grade 3 AST
TRAE, N = 37, May 10, 2019
  Aspartate aminotransferase (AST) increased Grade 1, patients: 3
  Aspartate aminotransferase (AST) increased Grade 1, percent of patients: (8) %
  Aspartate aminotransferase (AST) increased Grade 2, patients: 2
  Aspartate aminotransferase (AST) increased Grade 2, percent of patients: (5) %
  Aspartate aminotransferase (AST) increased Grade 3, patients: 4
  Aspartate aminotransferase (AST) increased Grade 3, percent of patients: 11%
  Aspartate aminotransferase (AST) increased Total, patients: 9
  Aspartate aminotransferase (AST) increased Total, percent of patients: (24) %
  Blood alkaline phosphatase increased Grade 1, patients: 6
  Blood alkaline phosphatase increased Grade 1, percent of patients: (16) %
  Blood alkaline phosphatase increased Grade 2, patients: 0
  Blood alkaline phosphatase increased Grade 3, patients: 0
  Blood alkaline phosphatase increased Total, patients: 6
  Blood alkaline phosphatase increased Total, percent of patients: (16) %
  Decreased appetite Grade 1, patients: 1
  Decreased appetite Grade 1, percent of patients: (3) %
  Decreased appetite Grade 2, patients: 6
  Decreased appetite Grade 2, percent of patients: (16) %
  Decreased appetite Grade 3, patients: 0
  Decreased appetite Total, patients: 7
  Decreased appetite Total, percent of patients: (19) %
  Fatigue Grade 1, patients: 4
  Fatigue Grade 1, percent of patients: (11) %
  Fatigue Grade 2, patients: 7
  Fatigue Grade 2, percent of patients: (19) %
  Fatigue Grade 3, patients: 0
  Fatigue Total, patients: 11
  Fatigue Total, percent of patients: (30) %
  Gamma-glutamyltransferase (GGT) increased Grade 1, patients: 3
  Gamma-glutamyltransferase (GGT) increased Grade 1, percent of patients: (8) %
  Gamma-glutamyltransferase (GGT) increased Grade 2, patients: 1
  Gamma-glutamyltransferase (GGT) increased Grade 2, percent of patients: (3) %
